According to the DeepSol protein solubility set:

Assay: soluble on expression in E. coli; label from the status in PepcDB or PDB records

| Sequence | soluble on expression in E. coli |
| --- | --- |
| MAQLTHINAAGEAHMVDVSAKAETVREARAEAFVTMRSETLAMIIDGRHHKGDVFATARIAGIQAAKRTWDLIPLCHPLMLSKVEVNLQAEPEHNRVRIETLCRLTGKTGVEMEALTAASVAALTIYDMCKAVQKDMVIGPVRLLAKSGGKSGDFKVEADD | soluble |
| MTYVFGPVSSKRLGQSLGVDLLPSKSCTWNCIYCQLGRTTAFVTERREFFPKEEILSEILETVASGKPIDWITFVGSGETTLYKGLDWLIAEVKKISKIPVAVITNGSLLSDPEVRRELLEADAVLPSLNAGSPELFERIDRPAPGFTFEKHVEGLRLFRQEYRGKLWVEVMLIRGVNDSEEALKEMAAVLAEIRPDMIHLVMPTRPAPESFVGIPDEELIQRAVFVLSSSAPVLHPAKGEMNLGSVGNLLDTVAGIASRHPVQERELEAALGKLFDGDAAKIRETMGELLASGRFEKVRQGSELYWIVKSA | not soluble |
| MGSDKIHHHHHHMFDFKELEAFVWVVRLGSFRKGAAKLYLTQPSISDRITRLEDSVGESLLDRSARPVQPTLRGREFFTYAERLLEGREEAMRLFQDEESFSGTLRLGVIETIASSWCPTFMRRLAERYPQLTIELTVDISPFLHQRLAENDLDMLFAMDGVAPGLCAIQTPLCTYEMGMFAAPEMAATLQRGGPAAFAETAFISFSKQARPYRELVAYLTALGIDTPRIHRTSTLMTIMRMSIEGVGIGVLPVATVRDAVESGSLVRLTLEEPLPPMIYDAIWRSANYPSFCASVARLAKQCATDYAQDHGKLSSPASMKGYVDT | not soluble |
| MLRRDFLKLLAAATTIAATGPVMAACSRDDNSATSGKAATDTIRIAAIGGPGEGLNINEAMSTATWAAMYAVYESLVIAGDSAPAFQLAKSVEPNKDATMWTVTLRDAPLFSDGSPVTAADVVASLKVVAKNPMRGMTYADVDVDKLKAIDDSTVEIHLTRPRADFVDAVLGVNSLVYKNGDPGTTIGSGPYVVESGDSGQGWKLAANEHFPTDRRISQSLEIQVIADADARLRAVDSGAVDLAMDLPATAARSLKNAQAWIPGPADSKALLFVLNTAVAPFNDAEVRRAVKISLDRKAMVDVALDGAGTVGADIPGFGFKDYPEGISEVRRDLDAARQIFKDKGIKELTLVTADFTPGMNDGADIAAKQLADAGVKVTVEKRDPTTYFADMAALRALPFFASYIVNRSLQSALPFMTGSHAMFNLSGFGTSGDWDKRLAAAQAETNDSQRAALLKKLAVEMQRDGGDVLWGYANEVHGRADGIPDVPVSQSVPVPTTK | not soluble |
| MATNLIGLDTTQSQKLANALNNLLANYQVFYMNTRGYHWNIQGKEFFELHAKFEEIYTDLQLKIDELAERILTLSARPMHSFSGYLKAAQIKEHTDSIDGRSSMQGLVDGFSILLHQQRDILELAGETGDEGTSALMSDYIREQEKLVWMLNAWLK | not soluble |
| MSPVEESPEEFLARFAAHRVEVRLYPEPWGSPLLEVQTPAGFVYAMDRGAPPAPVGEARVLFHGLARKVARAQGKEGVFREGAAYRLVGTARPLEKGFYLLLARGLPVVVHWEGPMPEEAEVLLWPPLMLFRE | soluble |
| MAAERLDPWGAVEIKDYDRLLRTFGIRPFSEVLPLLRKAGMEPSFLMRRGIIFGHRDFDKILEAKARGERVAVLTGFMPSGKFHFGHKLTVDQLIYLQKNGFKVFVAIADAEAFAVRRIGREEAVRIAVEEYIANMIALGLDPKDTEFYFQTNRGTPYFRLIQLFSGKVTAAEMEAIYGELTPAKMMASLTQAADILHVQLDEYGGYRHVVVPVGADQDPHLRLTRDLADRMAGVVELERPASTYHKLQPGLDGRKMSSSRPDSTIFLTDPPEVARNKLFRALTGGRATAEEQRRLGGVPEVCSVYHMDLYHLMPDDGEVKHIYTSCRLGKILCGECKQIAWEKLERFLAEHQSRLEKAKTIAWKLVEPPRF | soluble |
| SEDDLTKVLNYTKQRQTEPNPEYYGVAKKKNIIKIHLESFQTFLINKKVNGKEVTPFLNKLSSGKEQFTYFPNFFHQTGQGKTSDSEFTMDNSLYGLPQGSAFSLKGDNTYQSLPAILDQKQGYKSDVMHGDYKTFWNRDQVYKHFGIDKFYDATYYDMSDKNVVNLGLKDKIFFKDSANYQAKMKSPFYSHLITLTNHYPFTLDEKDATIEKSNTGDATVDGYIQTARYLDEALEEYINDLKKKGLYDNSVIMIYGDHYGISENHNNAMEKLLGEKITPAKFTDLNRTGFWIKIPGKSGGINNEYAGQVDVMPTILHLAGIDTKNYLMFGTDLFSKGHNQVVPFRNGDFITKDYKYVNGKIYSNKNNELITTQPADFEKNKKQVEKDLEMSDNVLNGDLFRFYKNPDFKKVNPSKYKYETGPK | soluble |
| MAQNLIFITIALVAIVNAGPGEEREKGPGEHKRGGKHHGFPSFFGNVSAEGRKEIAVVFKNENLTLAQADTQIASLAEKYGFAAAYKEHKEKEAVRQAETKKNTTTVINNLSSVATKLSAIRENKDQTRKAQHEAIEALRNENGVEVDTIEFIAKRSRGFGGRHGGRKGGKGGKHFGKKNGDKKRGPHGGDEEGKKTKEAAQ | not soluble |
| MFQFQFPLYNDIVEQARREAVEAGFEELRTPEDVDAAFRRPGTTLVLINSVCGCAGGIARPAAAHAVHYDKRPDHLVTVFAGQDKEATARAREYFVGEPPSSPSFALLKDGKLCAMLHRHDIEGHEPVAVVQKLQALFDEYCEEV | not soluble |
| MGSDKIHHHHHHMLKRKIETFLAKWKKSEDRKPLVIKGIRQCGKTYIVQKFAKENYESVVYMNFILEPDKKSAFTGNIDVDTIILNLSALIQGSRFINGKTCIILDEIQECKEARTALKSFHIDGRFDVIATGSLLGVKGYDKSKKKKEEEEGQDSVPVGYETVIDMYPLDFEEFLWANGISDMVIDSVKSCFENESTVPDGIHKAMMELLYRYVIVGGLPEVVNCFLETKNIELIYKVQRNLIAEYEEDMVKYADDPDKPRIRECFESIPKQLAKENKKFQYSVVKKGGRASQYIGSIQWLEDAGIVRRCYNTQITELPLEGNSIKGSFKVYTTDIGILMAMLDYGTQADILKGNLLGYKGAIFENLMADFLCKSGQKLYYFHKDSGLELDFLVRFKGECVILEVKAKTGKAKSMTTVLKNKDVYYVNNAIKLGQYNVGCEGDILTIPLYMGFLVEDKLADVIIPDVDVSLLTTI | not soluble |
| MSSSIPRVYSLGNSAMTYLLALRIAQLPSQPKVPSVVLLLNDQKKLNRFLNNDSKIIVKSSNNNKETYHRQFMASCVPPILSNGEIAPIENLIVSDPSSKFITAQLSKYNKSLRPETNILFLNPSLNLLEHLHRYRWRFDEARPNLFMGFTTPVDVGTIHQEFQLSLKVKGRIQFHIAKIDGFPRMSSTGKSASLSLRGDRQKNEKENNAFYKLFREISRLRSGIGSDLVSFDLHVHGFQDLFFTELEKLILESCTEPLLAVYDCVYKKELLKIPGAQDIIKKLISEQLSIIDRSYPSLNTNPNYSVIFDKERIFSLVMRDLEVNGHKRAKLAQSLNQLNQTNINELNGFFVSLGKYKKCNCKWNDILLTLIKGKQFITKQKALDYHYL | soluble |
| MGSDKIHHHHHHMNFTMNFPGLKDTFITKVEEVGEIVRLYVEMERKVHRCPKCQKRTKKVHDYRIQKIKHLKWFERQTQIFYKRRRYVCACGKRFAENNSFVERYQRTSIEWNQAVAIRAIKGKTFKETAENYGSSATTIVRRFDQISSSEIRPVEELPAIIAIDEYKGDTKEGKYQLIIADAVTKEPLDILPNRYKRTIKDYLRRHGSKVQMVIMDMSPSFKAAVQEALGRPVIIADRFHFCRYIYWALDGVRRRVQKDFHAYDRKKCKRMKHVFHKENSRLTEEERWYLDRYLKMSTELQKAYELKEAYQDWFKRSKEIGATQIERVKKELKAIYKLVKNSGIPEMCRAIGTFENWQTEILNSFAYGYSNGFLEGINNSTKVLKRNAFGFRSYERFRAKILLTHKYKRIGVHIG | not soluble |
| MSLKIRLPEMIDYFRKENGWTMKEFGEKLGKSESAISKWIKGVRSPMVEDFDKMVNLFNTDPDTLMYGASDLSTTLSEINKISSQLEEPRQKVVLNTATNQLDEQNQEKKKESKVIPINKIPDDLPPYISRKILENFVMPTNTMEYEPDEDMVDVPILGRIAAGLPLDAVENFDGTRPVPAHFLSSARDYYWLMVDGHSMEPKIPFGSYVLIEAVPDVTDGTIGAVLFQDDCQATLKKVYHEIDCLRLVSINKEFKDQFATQDNPAAVIGQAVKVEIDLEGHHHHHH | soluble |
| MKKSLLGIISILSLTLLFSGCVDNSGAEEQAVLHAYVGAGMQMPMDEIAIEFEEKYGIKVEYDYSGSGALLSKIVASNQGDIFMPGDCSYVYQLQEKEMSTECSNVTKHIPVIAVQKGNPKNITGLSDLGQDDLELALGDSSISIGKLFTKILSKAETKGVNVTEAVNSNTVVTGATVKQVLLYVTEKNVDAAVVWSADAYENSDAVDIVPIESEYNIIKTVPISILSTTEDYDNAKLFYDFVNNEGKEIFEKHGFVALE | not soluble |
| MGVYVLNVTDNSTFKGILNISDTVTAVNDQTFDSSKDLIDYVSSQKLGDSVKVTYEEDGQTKSAEGKIITLENLEHHHHHH | not soluble |
| MSLAAELFATRPDTHARERPEAVALIDRDRPVTHAALRAGVLDLAGGLAALGVCRGERVALWLPNCAHWVTMFLACARLGALTLAVNTRFRAQELGDILGRGQADWLVYWPGFKGIDFAGILAAVPPAARARLRGAIVVDGSGAQATPGPAGLAAHALAALHGPAPLPAPNAGVLCFTTSGTTSLPKFVLHDQDTLLRHGDAIARSYGYDDDSRILASAPFCGAFGFATLVGALARGVPVICEPAFDAARSVAAVRRHRVTHTYANNEALVQMFRLGERADFATARLFGFASFAPALGDLLPLARAQGVPLTGLYGSSELIALVAAQPREPADGDVSVRYEPGGALIHPEARVRARDPQDGRILADGESGEIEILAPSLMRGYLDNPQASAGALTDDGYFRTGDLGYTLGTRQFVFQTRMGDSLRLSGFLVNPAEIEQAVEALPGIRACQVVGATRDGKTVPYAFVLLDAGASPDPPGWMAACRQGMAGFKVPAGFQVLEAFPVVESANSAKIQKHKLREQAEALLAAAEGHHHHHH | not soluble |
| GHMGEEQYNRYQQYGAEECVLQMGGVLCPRPGCGAGLLPEPDQRKVTCEGGNGLGCGFAFCRECKEAYHEGECSAVFEAS | soluble |
| MLTDLSIRNLAIIDSLHVSFDRGLTVLTGETGAGKSIIIDAVNLIMGGRASAELVRTGEEEATVEALFSLPTDAPLGQRLAAMGLDCDGELLVKRVVSRSGRNRVFIGGGLSTLAMLSDISRELVNIYGQHESQTLLRPENHLRLLDGFAGLDSLRADYAAIFDRYRETEARLRELDEGEREAARRLDLLSFQVEEIHAAALAPGEEEALAGERELLVNAERLSRGSEEAYEALYGDESSVLHLLARVKGRVAEISGVDASLAPLLDVVESAAAQLEDAALTLRGYGARIEADPARLEAVDERLDLIRRLKKKYAPTVEEIIAYGEEAAREMELLLNRDRTRSDLDRELETLAGRVRETGHGLSAKRHEAAKRLKAAMEREIHELAMKHALFDVAFEELPEPRQTGLDSVTFLFSPNPGEEPKPLARIASGGELSRLMLALKQVHPESDVPTLIFDEVDTGIGGATSALVGEKLKRVSRAQQVLCITHHPQVAAFADRHYKVEKRVEGGRTATAVTPLEGEDRVAEMARMLGGVTITGTTLDHAREMIEGARRAAVGG | not soluble |
| MGSDKIHHHHHHMNLSMISASVTMGELQKKLDTLSHNIANSNTTGYKRREASFSDLLFQQVNTNKATQYETGRLTPNGIRVGSGAKVSQTALRMEQGTLTTTDRALDFAIANPSSFFEIETVVDGNPVTRLTRDGAFYLTANPNNDNLLQLVTQNGDYLLDSAGNRINIPATFEEITLTDQGTLQVTMPNGANVQAAQLQLIQVMKPQLLEAVGGNMFQLPDLAALGFAENEVYAAVGAGGGAVVQGTLEGSNVDIGREMTDLIETQRNYQFNARSVSMADQMMGLVNGLRR | not soluble |
